Results reported in PMC7949043, “Allosteric regulation of the nickel-responsive NikR transcription factor from Helicobacter pylori”.
Numbering of substitutions follows the chain as printed.

B1: ureA-F (32 bp ureA promoter) (dsDNA)
DNA 1: ATATAACACTAATTCATTTTAAATAATAATTA
DNA 2: TAATTATTATTTAAAATGAATTAGTGTTATAT
B2: ureA-perf-F (32 bp) (dsDNA)
DNA 1: B1 DNA 1 with A6T, C7T, C9T
DNA 2: B1 DNA 2 with G24A, G26A, T27A

What was measured:
HpNikR [1] = biological target: T1, HpNikR (Helicobacter pylori G27 (strain from …, UniProt A1YSQ9 1-148)); experiment: fluorescence anisotropy; Ni(II) 1.2 eq per monomer; Hill n = 1.8 ± 0.1; FA: 5 nM labeled DNA, 20 mM Tris pH 7.6, 100 mM NaCl, 3 mM MgSO4, temperature not stated (metal loading at room temperature); 19F-NMR: same buffer with 10% D2O, 400-900 uM monomer, DNA 1 eq per tetramer, variable temperature from 4 C; settings: protein: recombinant; tags: none; chain copies: 4; label: fluorescein at central T in the spacer of strand 1 (printed [F] after T14); blunt
T1 sequence: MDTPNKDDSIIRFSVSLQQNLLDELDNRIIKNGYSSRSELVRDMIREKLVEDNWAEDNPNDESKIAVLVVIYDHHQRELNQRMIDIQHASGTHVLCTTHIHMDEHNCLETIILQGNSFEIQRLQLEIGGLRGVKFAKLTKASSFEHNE

HpNikR [2] = biological target: T1, HpNikR; experiment: fluorescence anisotropy; Ni(II) 1.2 eq per monomer; Hill n = 1.9 ± 0.2; FA: 5 nM labeled DNA, 20 mM Tris pH 7.6, 100 mM NaCl, 3 mM MgSO4, temperature not stated (metal loading at room temperature); 19F-NMR: same buffer with 10% D2O, 400-900 uM monomer, DNA 1 eq per tetramer, variable temperature from 4 C; settings: protein: recombinant; tags: none; chain copies: 4; label: fluorescein at central T in the spacer of strand 1 (printed [F] after T14); blunt

Row | Binder | Kd (HpNikR [1]) [nM] | Kd (HpNikR [2]) [nM]
1 | B1 | 4.5 ± 0.6 | 
2 | B2 |  | 4.7 ± 0.4
